Assay results: patent US20250304650A1
Substitutions are numbered along the chain they refer to. Names and notes keep the numbering of the source.

B1: anti-NGF feline IgG1a, Fc variant Q311R (antibody, part only; not given: Anti-NGF variable domains, not shown: another chain or arm of the molecule; small tags and cut ends)
Fc: PPEMLGGPSIFIFPPKPKDTLSISRTPEVTCLVVDLGPDDSDVQITWFVDNTQVYTAKTSPREEQFNSTYRVVSVLPILHRDWLKGKEFKCKVNSKSLPSPIERTISKAKGQPHEPQVYVLPPAQEELSRNKVSVTCLIKSFHPPDIAVEWEITGQPEPENNYRTTPPQLDSDGTYFVYSKLSVDRSHWQRGNTYTCSVSHEALHSHHTQKSLTQSPGK
B2: anti-NGF feline IgG1a, Fc variant R392E (antibody, part only; not given: anti-NGF variable domains, light chain, not shown: another chain or arm of the molecule; small tags and cut ends)
Fc: B1 Fc with R81Q, R164E
B3: anti-NGF feline IgG1a, Fc variant S252R, L262Q (antibody, part only; not given: anti-NGF variable domains, light chain, not shown: another chain or arm of the molecule; small tags and cut ends)
Fc: B1 Fc with S22R, L32Q, R81Q
B4: anti-NGF feline IgG1a, Fc variant S252R, A378E (antibody, part only; not given: Anti-NGF variable domains, not shown: another chain or arm of the molecule; small tags and cut ends)
Fc: B1 Fc with S22R, R81Q, A148E
B5: anti-NGF feline IgG1a, Fc variant T260E, L309E, Q355L (antibody, part only; not given: anti-NGF variable domains, not shown: another chain or arm of the molecule; small tags and cut ends)
Fc: B1 Fc with T30E, L79E, R81Q, Q125L
B6: anti-NGF feline IgG1a, Fc variant S290V, R334D (antibody, part only; not given: anti-NGF variable domains, light chain, not shown: another chain or arm of the molecule; small tags and cut ends)
Fc: B1 Fc with S60V, R81Q, R104D
B7: anti-NGF feline IgG1a, Fc variant R301L, E380V, T437L (antibody, part only; not given: anti-NGF variable domains, light chain, not shown: another chain or arm of the molecule; small tags and cut ends)
Fc: B1 Fc with R71L, R81Q, E150V, T209L
B8: anti-NGF feline IgG1a with wild-type Fc (antibody, part only; not given: anti-NGF variable domains, not shown: another chain or arm of the molecule; small tags and cut ends)
Fc: B1 Fc with R81Q
B9: anti-NGF feline IgG1a, Fc variant S254K (antibody, part only; not given: Anti-NGF variable domains, not shown: another chain or arm of the molecule; small tags and cut ends)
Fc: B1 Fc with S24K, R81Q
B10: anti-NGF feline IgG1a, Fc variant T286D (antibody, part only; not given: anti-NGF variable domains, not shown: another chain or arm of the molecule; small tags and cut ends)
Fc: B1 Fc with T56D, R81Q
B11: anti-NGF feline IgG1a, Fc variant T286E (antibody, part only; not given: anti-NGF variable domains, light chain, not shown: another chain or arm of the molecule; small tags and cut ends)
Fc: B1 Fc with T56E, R81Q
B12: anti-NGF feline IgG1a, Fc variant S290Y (antibody, part only; not given: anti-NGF variable domains, not shown: another chain or arm of the molecule; small tags and cut ends)
Fc: B1 Fc with S60Y, R81Q
B13: anti-NGF feline IgG1a, Fc variant E293H (antibody, part only; not given: anti-NGF variable domains, light chain, not shown: another chain or arm of the molecule; small tags and cut ends)
Fc: B1 Fc with E63H, R81Q
B14: anti-NGF feline IgG1a, Fc variant R301L (antibody, part only; not given: anti-NGF variable domains, not shown: another chain or arm of the molecule; small tags and cut ends)
Fc: B1 Fc with R71L, R81Q
B15: anti-NGF feline IgG1a, Fc variant L309V (antibody, part only; not given: anti-NGF variable domains, light chain, not shown: another chain or arm of the molecule; small tags and cut ends)
Fc: B1 Fc with L79V, R81Q
B16: anti-NGF feline IgG1a, Fc variant L309E (antibody, part only; not given: anti-NGF variable domains, light chain, not shown: another chain or arm of the molecule; small tags and cut ends)
Fc: B1 Fc with L79E, R81Q
B17: anti-NGF feline IgG1a, Fc variant L309Y (antibody, part only; not given: anti-NGF variable domains, light chain, not shown: another chain or arm of the molecule; small tags and cut ends)
Fc: B1 Fc with L79Y, R81Q
B18: anti-NGF feline IgG1a, Fc variant Q311V (antibody, part only; not given: anti-NGF variable domains, light chain, not shown: another chain or arm of the molecule; small tags and cut ends)
Fc: B1 Fc with R81V
B19: anti-NGF feline IgG1a, Fc variant Q311L (antibody, part only; not given: anti-NGF variable domains, light chain, not shown: another chain or arm of the molecule; small tags and cut ends)
Fc: B1 Fc with R81L
B20: anti-NGF feline IgG1a, Fc variant K326D (antibody, part only; not given: anti-NGF variable domains, not shown: another chain or arm of the molecule; small tags and cut ends)
Fc: B1 Fc with R81Q, K96D
B21: anti-NGF feline IgG1a, Fc variant R334D (antibody, part only; not given: anti-NGF variable domains, light chain, not shown: another chain or arm of the molecule; small tags and cut ends)
Fc: B1 Fc with R81Q, R104D
B22: anti-NGF feline IgG1a, Fc variant Q347L (antibody, part only; not given: Anti-NGF variable domains, not shown: another chain or arm of the molecule; small tags and cut ends)
Fc: B1 Fc with R81Q, Q117L
B23: anti-NGF feline IgG1a, Fc variant I377Y (antibody, part only; not given: anti-NGF variable domains, not shown: another chain or arm of the molecule; small tags and cut ends)
Fc: B1 Fc with R81Q, I147Y
B24: anti-NGF feline IgG1a, Fc variant E380T (antibody, part only; not given: anti-NGF variable domains, not shown: another chain or arm of the molecule; small tags and cut ends)
Fc: B1 Fc with R81Q, E150T

Molecular target: feline FcRn (FCN-F82W3, Acrobiosystems) (feline)
Experiment: SPR Carterra, IgG coupled, pH 6.0

First: B1
Second: B2
The Kd of the first is 2.4-fold higher: 59.2 nM for the first, 24.5 nM for the second. The second binds more tightly here.

First: B3
Second: B4
The Kd of the first is 7.2-fold lower: 4.9 nM for the first, 35.3 nM for the second.

B5 and B6 are within 1.5-fold of each other in Kd: 9.9 nM for the first, 10.7 nM for the second.

First: B7
Second: B8
The Kd of the first is 22-fold lower: 10.7 nM for the first, 233 nM for the second.

B9 and B10 are within 1.5-fold of each other in Kd: 107 nM for the first, 97.4 nM for the second.

B11 and B12 are within 1.5-fold of each other in Kd: 93.4 nM for the first, 128 nM for the second.

Compared with B13, B14 is 1.5-fold lower in Kd: 146 nM for the first, 95.2 nM for the second.

B15 and B16 are within 1.5-fold of each other in Kd: 127 nM for the first, 102 nM for the second.

Going from B17 to B18, the Kd falls from 196 nM to 80.4 nM (2.4-fold).

Going from B19 to B20, the Kd rises from 88.2 nM to 136 nM (1.5-fold).

B21 and B22 are within 1.5-fold of each other in Kd: 133 nM for the first, 157 nM for the second.

Going from B23 to B24, the Kd rises from 61.4 nM to 116 nM (1.9-fold).

First: B1
Second: B2
The koff of the first is 2.8-fold lower: 0.0116 s⁻¹ for the first, 0.0324 s⁻¹ for the second.

B3 and B4 are within 1.5-fold of each other in koff: 0.00795 s⁻¹ for the first, 0.00927 s⁻¹ for the second.

B5 and B6 are within 1.5-fold of each other in koff: 0.00977 s⁻¹ for the first, 0.00997 s⁻¹ for the second.

Going from B7 to B8, the koff rises from 0.0123 s⁻¹ to 0.11 s⁻¹ (8.9-fold).

B9 and B10 are within 1.5-fold of each other in koff: 0.0557 s⁻¹ for the first, 0.0389 s⁻¹ for the second.

Compared with B11, B12 is 1.9-fold higher in koff: 0.0457 s⁻¹ for the first, 0.0849 s⁻¹ for the second.

First: B13
Second: B14
The koff of the first is 1.5-fold higher: 0.0665 s⁻¹ for the first, 0.0435 s⁻¹ for the second.

B15 and B16 are within 1.5-fold of each other in koff: 0.045 s⁻¹ for the first, 0.0415 s⁻¹ for the second.

Going from B17 to B18, the koff falls from 0.118 s⁻¹ to 0.0505 s⁻¹ (2.3-fold).

B19 and B20 are within 1.5-fold of each other in koff: 0.0499 s⁻¹ for the first, 0.0584 s⁻¹ for the second.

First: B21
Second: B22
The koff of the first is 1.5-fold lower: 0.0561 s⁻¹ for the first, 0.0853 s⁻¹ for the second.

B23 and B24 are within 1.5-fold of each other in koff: 0.0514 s⁻¹ for the first, 0.062 s⁻¹ for the second.

Going from B1 to B2, the kon rises from 196000 M⁻¹ s⁻¹ to 1.33e+06 M⁻¹ s⁻¹ (6.8-fold).

First: B3
Second: B4
The kon of the first is 6.2-fold higher: 1.63e+06 M⁻¹ s⁻¹ for the first, 262000 M⁻¹ s⁻¹ for the second.

B5 and B6 are within 1.5-fold of each other in kon: 983000 M⁻¹ s⁻¹ for the first, 931000 M⁻¹ s⁻¹ for the second.

First: B7
Second: B8
The kon of the first is 2.4-fold higher: 1.15e+06 M⁻¹ s⁻¹ for the first, 472000 M⁻¹ s⁻¹ for the second.

B9 and B10 are within 1.5-fold of each other in kon: 521000 M⁻¹ s⁻¹ for the first, 400000 M⁻¹ s⁻¹ for the second.

B11 and B12 are within 1.5-fold of each other in kon: 489000 M⁻¹ s⁻¹ for the first, 661000 M⁻¹ s⁻¹ for the second.

B13 and B14 are within 1.5-fold of each other in kon: 455000 M⁻¹ s⁻¹ for the first, 457000 M⁻¹ s⁻¹ for the second.

B15 and B16 are within 1.5-fold of each other in kon: 353000 M⁻¹ s⁻¹ for the first, 406000 M⁻¹ s⁻¹ for the second.

B17 and B18 are within 1.5-fold of each other in kon: 600000 M⁻¹ s⁻¹ for the first, 629000 M⁻¹ s⁻¹ for the second.

B19 and B20 are within 1.5-fold of each other in kon: 565000 M⁻¹ s⁻¹ for the first, 428000 M⁻¹ s⁻¹ for the second.

B21 and B22 are within 1.5-fold of each other in kon: 423000 M⁻¹ s⁻¹ for the first, 544000 M⁻¹ s⁻¹ for the second.

First: B23
Second: B24
The kon of the first is 1.6-fold higher: 837000 M⁻¹ s⁻¹ for the first, 533000 M⁻¹ s⁻¹ for the second.
